Laboratory results as given in publication PMC9978635.

Legend:
Assay in all cases: BioID2 proximity biotinylation, streptavidin purification, TMT quantitative LC-MS
Settings in all cases: untreated (-K18) neurons, 3 wk; read off a plot
CELF2 = biological target: CELF2
[1] = biological target: NADH:ubiquinone oxidoreductase core subunit S8 (UniProt O00217)
SRPR = biological target: SRPR
TAGLN3 = biological target: TAGLN3

Sequence of UniProt O00217 (O00217 35-210): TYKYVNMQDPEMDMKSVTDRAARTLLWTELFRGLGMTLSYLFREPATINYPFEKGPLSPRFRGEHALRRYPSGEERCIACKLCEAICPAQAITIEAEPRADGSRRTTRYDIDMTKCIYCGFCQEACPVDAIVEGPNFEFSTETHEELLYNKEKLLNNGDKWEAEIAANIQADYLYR

“0N4R tau[WT]-BioID2 (from UniProt P10636-6) P301L” was tested. Which enrichment (log2 abundance ratio) (CELF2) did it give?
The enrichment (log2 abundance ratio) was 1.2.

What about the other: log2 abundance ratio (mutant/WT) (log2 abundance ratio) (CELF2) of the same substance?
The other: log2 abundance ratio (mutant/WT) (log2 abundance ratio) was 2.1.

And the enrichment (log2 abundance ratio) [1]?
Its enrichment (log2 abundance ratio) is 2.5.

And the other: log2 abundance ratio (mutant/WT) (log2 abundance ratio) [1]?
The other: log2 abundance ratio (mutant/WT) (log2 abundance ratio) was 2.

What about the enrichment (log2 abundance ratio) (SRPR) of the same substance?
The enrichment (log2 abundance ratio) was 0.65.

And the other: log2 abundance ratio (mutant/WT) (log2 abundance ratio) (SRPR)?
The other: log2 abundance ratio (mutant/WT) (log2 abundance ratio) was 2.

What about the enrichment (log2 abundance ratio) (TAGLN3) of the same substance?
Its enrichment (log2 abundance ratio) is 2.

And the other: log2 abundance ratio (mutant/WT) (log2 abundance ratio) (TAGLN3)?
Its other: log2 abundance ratio (mutant/WT) (log2 abundance ratio) is 0.95.
